We go through 1 molecule from patent publication US5633227A, “Secretory leukocyte protease inhibitor as an inhibitor of tryptase” (Miles, Inc., priority 1994, dated 1997).

In general, Ki refers to a measure of affinity in units of concentration, obtained from inhibition or displacement.

In one experiment the test system is human mast cell tryptase. The experiment in a line: VIP assay for tryptase activity (Dns-VIP hydrolysis, HPLC/fluorescence, Dixon plot). Type of experiment: biochemical. As to conditions: rate of loss of full-length VIP (1-28), 0.2 and 0.8 μM VIP, 37° C., read-out: Ki for inhibition of tryptase degradation of full length Dns-VIP. As for the experimental part: In a typical assay, mast cell tryptase (12.5 pM) was incubated at 37° C. with dansyl-VIP (0.2-2 μM) in 100 mM Tris-HCl (pH 8.0) containing 1 μg/ml porcine mucosal heparin and 0.02% Triton X-100 in a final volume of 2.0 ml. To some samples, secretory leukocyte protease inhibitor was added to a final concentration of between 0 and 107 nM. The tryptase was pre-incubated with the SLPI, if added, for 5 min. at 37° C. before initiating the reaction by the addition of Dns-VIP. Aliquots (250 μl) were removed at 0, 2.5, 5.0, 7.5, 10, and 20 minutes to micro-vials (Sunbrokers) and the reaction terminated by the addition of TFA to a final concentration of 3% (v/v). The acidified reaction mixture was subjected to chromatography on a C-18 reverse-phase column (Vydac, 5 micron, 0.46×25 cm). Peptide hydrolysis was monitored by HPLC using a Hewlett Packard HP1090 unit complete with binary solvent delivery and autoinjection capability. Fluorescent detection (postcolumn) was performed with an inline Gilson Model 121 filter fluorimeter (excitation at 310-410 nm, emission at 480-520 nm). Dns-VIP fragments were separated from any unconverted Dns-VIP using a linear gradient of 69:31 (v/v) to 50:50 (v/v) C:D over 5.5 minutes (C=100 mM sodium acetate, pH 6.5 plus 0.2% sodium azide, D=80% ACN in water), with return to 69:31 (v/v) C:D at 6.5 minutes. Chromatography was performed at 1.0 ml/min at 25° C. […]

The next experiment relates to tryptase. The experiment in a line: GPK-AMC assay for tryptase activity (Dixon plot). Format: biochemical, human. As to conditions: Table V footnote. As for the experimental part:
Tryptase activity was measured according to the procedure of Schwartz, et al., J. Biol. Chem., 261, 7372-7379 (1986) , with minor modifications, using Gly-Pro-Lys-Aminomethylcoumarin (GPK-AMC) as a substrate. The reaction was performed in assay buffer (0.1M Tris, pH 8.0, 10 μg/ml heparin) at room temperature in a 96-well microtiter plate (Perkin-Elmer, Norwalk, Conn.). The amount of coumarin produced by tryptase was determined by measuring the fluorescence (ex=372 nm, em=432 nm) on a Perkin-Elmer LS-50B fluorimeter equipped with a plate reader. 50 μl of tryptase (final concentration of 333 pM) was mixed with either 50 μl of the sample to be tested or with assay buffer and incubated for 5 min. at room temperature. […] The fluorescence intensity was measured every 5 minutes. For samples that were being tested for modulators of tryptase activity, the % inhibition for each fraction was determined by:
Inhibitory activity against tryptase and bovine trypsin was measured using Gly-Pro-Lys-aminomethylcoumarin as a substrate. […] The amount of coumarin produced was determined by measuring the fluorescence (ex=370 nm, em=432 nm) on a Perkin-Elmer LS-50B fluorimeter. […] The reaction was started by the addition of the substrate GPK-AMC (20 or 40 μM final) and the increase in fluorescence was measured over a 2 minute period. […]

Several values for one entry are separate records, joined by “and”; a condition that tells them apart may be missing. Equal values may be shown once. Read-outs that look alike come from different tables or passages of the source.

B1: secretory leukocyte protease inhibitor (protein)
chain: SGKSFKAGVCPPKKSAQCLRYKKPECQSDWQCPGKKRCCPDTCGIKCLDPVDTPNPTRRKPGKCPVTYGQCLMLNPPNFCEMDGQCKRDLKCCMGMCGKSCVSPVKA
Take B1: the Ki with human mast cell tryptase (listed as Full SLPI) is 8 nM; in the experiment with human mast cell tryptase, 8 nM and ~8 nM. Moreover, the “Response in GPK-AMC tryptase assay” value in the experiment on tryptase is recorded as “biphasic response”.
